IC50, Ka and Kd data for two molecules are collected here from article PMC3782497, “Unique Structure and Dynamics of the EphA5 Ligand Binding Domain Mediate Its Binding Specificity as Revealed by X-ray Crystallography, NMR and MD Simulations” (PLoS ONE, 2013).

Bridge positions count the residues as written; N and C are the ends. Square brackets hold non-standard residues; d marks the D form. Primed or numbered codes have the meaning given here. Ends that are not written are not given here. PEG2′ = not defined here

One experiment deals with T1, rat EphA5 Fc (rat, UniProt P54757 27-575).
T1 construct: EphA5, rat, Fc fusion; source: bought: R&D Systems
The experiment is described as follows: ELISA; rat EphA5 Fc (1 µg/mL) held on Protein A-coated wells; different concentrations of synthetic WDC with 0.6 nM ephrin-A5 AP for 1 hour; bound AP detected with pNPP; IC50 by non linear regression. Conditions: both partners purified.

Experiment [1] concerns the target human EphA5 ligand-binding domain (LBD), residues 59-235 (human, UniProt P54756 59-235, K232E (from the reverse primer; not stated by the paper) | C233A (from the …, disulfide bridges Cys137-Cys147 and Cys102-Cys220; 15N-labelled for the NMR titration). Kind of experiment: ITC.
Target sequence in this assay (P54756 59-235 K232E/C233A): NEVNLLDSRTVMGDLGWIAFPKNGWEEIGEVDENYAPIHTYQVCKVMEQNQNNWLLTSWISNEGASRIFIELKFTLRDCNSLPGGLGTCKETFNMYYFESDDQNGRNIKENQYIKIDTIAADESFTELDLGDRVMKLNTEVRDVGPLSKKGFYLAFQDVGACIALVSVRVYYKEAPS
For experiment [2], the target named is T2, human EphA5 ligand-binding domain (LBD), residues 59-235 (human, UniProt P54756 59-235, K232E (from the reverse primer; not stated by the paper) | C233A (from the …, disulfide bridges Cys137-Cys147 and Cys102-Cys220; 15N-labelled for the NMR titration).
T2 construct: Cloned through BamHI into a modified pET32a and released by thrombin, so extra N-terminal residues (probably GS) may remain; also called EphA5 LBD; source: E. coli Rosetta-gami (DE3), purified (Ni-NTA, thrombin cleavage, gel filtration, Mono Q)
Kind of experiment: ITC; EphA5 LBD in the cell, bacterially expressed WDC in the syringe; 10 mM phosphate buffer pH 6.3, 25°C; single binding site model. Conditions: both partners purified.
T2 sequence (P54756 59-235 K232E/C233A): as above

T1 sequence (P54757 27-575): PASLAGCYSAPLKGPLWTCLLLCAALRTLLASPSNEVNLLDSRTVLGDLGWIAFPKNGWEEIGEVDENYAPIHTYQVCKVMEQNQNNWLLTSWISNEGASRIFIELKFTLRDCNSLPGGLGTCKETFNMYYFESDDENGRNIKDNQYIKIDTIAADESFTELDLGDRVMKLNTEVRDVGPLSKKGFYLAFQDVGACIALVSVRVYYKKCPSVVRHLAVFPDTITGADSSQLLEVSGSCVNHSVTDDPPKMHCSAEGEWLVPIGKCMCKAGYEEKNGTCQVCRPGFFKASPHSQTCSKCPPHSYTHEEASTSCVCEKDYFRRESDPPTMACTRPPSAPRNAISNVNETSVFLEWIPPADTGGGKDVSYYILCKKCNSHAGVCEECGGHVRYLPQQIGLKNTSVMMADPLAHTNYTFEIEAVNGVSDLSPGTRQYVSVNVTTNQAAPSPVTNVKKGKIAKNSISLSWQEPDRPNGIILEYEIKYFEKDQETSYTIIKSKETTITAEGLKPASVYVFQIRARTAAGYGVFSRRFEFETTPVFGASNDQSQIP

B1: modified WDC peptide (WDCNGPYCHWLG-(PEG)2-KK), synthetic (peptide)
peptide: WDCNGPYCHWLG[PEG2′]KK
modifications: disulfide 3-8
notes: WDC peptide; two lysines joined to the peptide through (PEG)2, which is not an amino acid linker; also called synthetic WDC peptide; source: synthetic peptide (Anaspec, Inc.)
Consider B1, for which the IC50 with rat EphA5 Fc is roughly 50 µM.

B2: WDC antagonistic peptide (WDCNGPYCHWLG), bacterially expressed (peptide)
peptide: WDCNGPYCHWLG
modifications: disulfide 3-8 (inferred)
notes: 12-residue peptide previously identified in a phage-display screen on the extracellular domain of rat EphA5; Cloned through BamHI into a modified pGEX-4T-1; also called WDC peptide; recombinant peptide; source: E. coli Rosetta-gami (DE3), GST fusion, released by in-gel thrombin cleavage, HPLC purified
B2 displayed a Ka in experiment [1] of 161000 M⁻¹. Moreover, binding in experiment [2] was characterised by a dissociation constant (Kd) of 6.2 µM.
